Assay results as given in patent publication US20080279856A1, “Inhibition of Bradykinin Release” (Novo Nordisk Pharmaceuticals, Inc., priority 1999, published 2008).

What was measured:
[1] = system: EC monolayers (HUVEC or BAEC); test: Albumin clearance (Evans blue dye-conjugated albumin) across EC monolayers after HBP stimulation; format: cell-based, human, bovine; details: HBP 75 μg/ml; over a 60 min period
Procedure: Human umbilical vein endothelial cells (HUVEC) are isolated from fresh umbilical cords as described by Jaffe et al., 1973, J. Clin. Invest. 52:2745-2756), and bovine aorta endothelial cells (BAEC) are isolated according to the method of Booyse et al., 1975, Thromb. Diath. Haemmorrh. 24:825-839) with a few modifications. Briefly, the lumen of the umbilical vein or bovine aorta is incubated with a 0.25% collagenase solution for 10 min, and detached endothelial cells washed out with PBS. Harvested cells are pelleted and resuspended in culture medium, seeded in tissue culture flasks and incubated under standard conditions. Medium is changed every 48 h until cultures have reached confluence (3-5 days). […]
Cultured EC are detached by brief (2 min) trypsin-EDTA treatment (0.25% trypsin/0.01% EDTA) and replated onto either 0.2 μm pore size Anopore inorganic membrane or 3.0 μm pore size polycarbonate filters (Tissue Culture inserts, 10 mm; NUNC, Roskilde, Denmark). […] The ECs are grown to confluent monolayers, as assessed by daily microscopic observation and measurement of the electrical resistance across the monolayer.
Evans blue dye-conjugated albumin (EBA) is used as a marker for macromolecular permeability of the EC monolayers. […] In experiments where albumin permeability is analyzed, the culture medium in the upper compartment is exchanged for medium containing EBA. […]

[2] = 3H-LPS binding to HBP, scintillation proximity assay; details: saturation, SPA
Procedure: The affinity for lipopolysaccharide (3H-LPS) is measured by scintillation proximity assay technology (SPA) as described (Linde, V., Bjørn, S., Kastrup, J. S., and Flodgaard, H., 2000, Biotechniques 28:218-222). All samples are repeated in triplicates.

[3] = system: HUVEC or BAEC monolayers; test: EC intracellular free Ca2+ (fluo-3/AM, confocal microscopy); format: cell-based, human, bovine; details: HBP 75 μg/ml
Procedure: The Ca^2+ sensitive fluorescent probe fluo-3/AM is used for determination of changes in EC intracellular free Ca^2+. Confluent HUVEC or BAEC monolayers cultured on Biomatrix I coated filters are incubated with a Fluo-3/AM solution (3 μM in HBSS containing 2% FCS and […] HEPES), added to both the apical and basolateral surface, for 30 min at 37° C. The monolayers are washed three times and incubated with fresh HBSS in the dark for 20 min at room temperature before use to allow complete hydrolysis of the dye ester to its calcium sensitive free acid form. EC are stimulated with HBP added to the apical surface. Changes in EC Ca^2+i in response to HBP stimulation are measured through continuous registration of fluorescence intensity with a laser-scanning confocal imaging system (Insight Plus; Meridian Instruments Inc., Okemon, Mich.).

[4] = system: rat insulinoma cells; details: IL-1 induced; cited from earlier work
[5] = system: hamster cheek pouch microvasculature; test: Intravital microscopy of hamster cheek pouch microvessel permeability; format: in vivo, Syrian golden hamsters; details: topical HBP 75 μg/ml
Excerpt: In order to study the effect of PMN secretion products on microvessel permeability in vivo, intravital microscopy of the hamster cheek pouch microcirculation is applied. As previously described in detail (Raud & Lindbom, 1994, Immunology of the Microcirculation, Academic Press, 1994, chapter 7), the left cheek pouch of anaesthetized Syrian golden hamsters is everted and prepared for microscopic observation under continuous superfusion with a bicarbonate buffer maintaining physiological levels of temperature, pH and gas tensions. FITC-conjugated dextran (MW: 150.000) injected i.v. (250 mg/kg body weight) is used as plasma tracer to permit visualization of changes in vascular permeability to macromolecules. The microvasculature in the exposed cheek pouch is observed under low magnification in fluorescent light with a Leitz Orthoplan microscope and recorded on video. After control recordings, superfusion is stopped and 1 ml of medium containing CD18 cross-linking-evoked PMN secretion at 37° C. is topically applied to the cheek pouch. In parallel experiments, anti-CD18-treated PMN medium is not subjected to cross-linking is used.

B1: HBP: Native human heparin-binding protein, mature form with the amino acid sequence SEQ ID NO:1 (protein, listed as Homo sapiens)
chain: IVGGRKARPRQFPFLASIQNQGRHFCGGALIHARFVMTAASCFQSQNPGVSTVVLGAYDLRRRERQSRQTFSISSMSENGYDPQQNLNDLMLLQLDREANLTSSVTILPLPLQNATVEAGTRCQVAGWGSQRSGGRLSRFPRFVNVTVTPEDQCRPNNVCTGVLTRRGGICNGDGGTPLVCEGLAHGVASFSLGPCGRGPDFFTRVALFRDWIDGVLNNPGPGPA
With B1 the “net albumin clearance volume” value [1] was 20.4 ± 3.4 µL, the “apparent Kd for 3H-LPS” value [2] was “approximately 0.7 μg/mL” and the “change in EC cytosolic Ca2+ (fluo-3 fluorescence intensity)” value [3] was “rapid increase in fluorescence intensity”. For the same molecule, the “time to peak of Ca2+ fluorescence” value [3] was ≤ 1 min, the apoptosis [4] was “rescues rat insulinoma cells from IL-1 induced apoptosis” and the “time of maximum leakage response after challenge” value [5] was 7 to 10 min. The “time to complete disappearance of leakage” value [5] was ≤ 30 min and the “time to visible leaky spots of fluorescent tracer” value [5] was ≤ 2 min.
